Reference: patent publication US20190023793A1 (Innovent, published 2019)
One block for each binder: values may come before it.

Experiments:
[1] = target: T1, B7H3 (human) (human, UniProt Q5ZPR3 29-461, limits assumed); assay: ELISA, antigen coated at 0.5 µg per well, biotinylated nanobody, streptavidin-HRP
T1 construct: also called PD-L1 family members
T1 sequence (looked up): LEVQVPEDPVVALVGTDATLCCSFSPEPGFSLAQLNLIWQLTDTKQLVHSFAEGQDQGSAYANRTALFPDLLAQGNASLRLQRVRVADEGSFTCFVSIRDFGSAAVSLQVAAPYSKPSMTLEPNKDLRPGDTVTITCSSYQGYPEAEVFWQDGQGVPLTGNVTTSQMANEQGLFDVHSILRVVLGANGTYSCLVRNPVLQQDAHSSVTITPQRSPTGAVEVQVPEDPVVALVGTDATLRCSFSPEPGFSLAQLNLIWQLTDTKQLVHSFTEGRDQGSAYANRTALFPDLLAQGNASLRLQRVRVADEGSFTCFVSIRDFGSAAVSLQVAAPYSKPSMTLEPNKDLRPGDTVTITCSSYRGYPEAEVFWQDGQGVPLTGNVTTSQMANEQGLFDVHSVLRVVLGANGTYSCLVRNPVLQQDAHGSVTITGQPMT
Experimental: (§1) (2) The antigen proteins PD-L1 (human), PD-L1 (rat), PD-L1 (monkey), PD-L2 (human), B7H4 (human), B7H3 (human) were coated: 0.5 μg per well (5 μg/mL, 100 μL), IgG1 was coated as a control, left overnight at 4° C.;
(§2) (4) Each biotinylated nanobodies were diluted to 10 μg/mL, and 100 μL of each was incubated in each well and allowed to react at RT for 1 hour.
(§3) (5) The unbound nanobodies were washed with PBST, 100 μL of streptavidin-HRP (1:1000 dilution) was added, and the resultant was let stand for 1 hour at room temperature.

[2] = target: T2, PD-L2 (human) (human, UniProt Q9BQ51 20-219, limits assumed); assay: as above
T2 construct: also called PD-L1 family members
T2 sequence (looked up): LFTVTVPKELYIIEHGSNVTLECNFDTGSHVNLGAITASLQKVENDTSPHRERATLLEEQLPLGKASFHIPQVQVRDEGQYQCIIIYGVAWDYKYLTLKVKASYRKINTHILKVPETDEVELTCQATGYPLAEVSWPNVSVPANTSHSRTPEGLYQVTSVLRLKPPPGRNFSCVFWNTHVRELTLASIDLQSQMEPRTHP
Experimental: as §1, §2, §3

[3] = target: T3, B7H4 (human) (human, UniProt Q7Z7D3 25-258, limits assumed); assay: as above
T3 construct: also called PD-L1 family members
T3 sequence (looked up): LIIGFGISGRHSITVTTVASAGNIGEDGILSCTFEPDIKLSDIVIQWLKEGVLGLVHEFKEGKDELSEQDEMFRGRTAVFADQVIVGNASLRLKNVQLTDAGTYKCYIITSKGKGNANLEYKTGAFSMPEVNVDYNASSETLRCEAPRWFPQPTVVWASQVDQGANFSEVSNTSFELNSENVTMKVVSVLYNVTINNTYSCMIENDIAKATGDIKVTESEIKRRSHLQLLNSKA
Experimental: as §1, §2, §3

[4] = target: T4, PD-L1 (human) antigen protein (human, UniProt Q9NZQ7 19-238, limits assumed); assay: SPR, BiaCore T200, antigen immobilized on CM-5 chip, nanobody in five concentrations
T4 construct: also called human PD-L1; immobile phase antigens
T4 sequence (Q9NZQ7 19-238 limits assumed): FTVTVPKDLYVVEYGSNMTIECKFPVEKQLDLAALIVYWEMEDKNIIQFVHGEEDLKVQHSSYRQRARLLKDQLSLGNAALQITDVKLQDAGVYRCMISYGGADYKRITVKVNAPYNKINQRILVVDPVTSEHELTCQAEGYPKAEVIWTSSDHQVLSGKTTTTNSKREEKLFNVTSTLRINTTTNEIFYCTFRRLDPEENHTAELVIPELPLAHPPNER
Experimental: BiaCore T200 was used for detection. (1) Immobilization: The immobile phase antigens were immobilized on the surface of a CM-5 sensor chip using a carboxy-amino reaction;
(2) Binding: The nanobodies were diluted with HBS buffer to an appropriate concentration (five concentration gradients) to observe the antigen-nanobody binding process;
(4) Analysis of the experimental results.

binding result [1]: no binding (tested: 10 µg/mL)
binding result [2]: no binding (tested: 10 µg/mL)
binding result [3]: no binding (tested: 10 µg/mL)
Kd [4]: 2.34 nM
B1: PD-L1 Nb-Fc protein (nanobody before humanization fused to IgG1 Fc) (Fc fusion)
chain: QVQLQESGGGSVQAGGSLRLSCQASAYTISRNSMGWFRQAPGKQREGVAAIESDGSTSYSDSVKGRFTISLGNAKNTLYLEMNSLKPEDTAMYYCAAPKVGLGPRTALGHLAFMTLPALNYWGQGTQVTVSS
notes: also called PD-L1 nanobodies; nanobodies before humanization; not shown: IgG1 Fc encoded by the pFUSE-IgG1 vector (Invivogen)

binding result [1]: no binding (tested: 10 µg/mL)
binding result [2]: no binding (tested: 10 µg/mL)
binding result [3]: no binding (tested: 10 µg/mL)
Kd [4]: 2.26 nM
B2: humanized PD-L1 nanobody with Fc tag (humanized Nb-Fc) (Fc fusion)
chain: QVQLQESGGGLVQPGGSLRLSCAASAYTISRNSMGWFRQAPGKGLEGVAAIESDGSTSYSDSVKGRFTISLDNSKNTLYLEMNSLRAEDTAVYYCAAPKVGLGPRTALGHLAFMTLPALNYWGQGTLVTVSS
notes: also called humanized PD-L1 nanobodies; humanized nanobodies; not shown: IgG1 Fc encoded by the pFUSE-IgG1 vector (Invivogen)
